# Measured values taken from patent US20230265179A1 (TWIST BIOSCIENCE, published 2023).
# Where a chain is given by its changes, count along the chain named.
# T1: CD40L over-expressed on Expi293 cells (UniProt P29965 1-261, limits assumed)
# T1 construct: whole, on cells; also called cytokine over-expressing Expi293 cells
# T1 sequence (looked up): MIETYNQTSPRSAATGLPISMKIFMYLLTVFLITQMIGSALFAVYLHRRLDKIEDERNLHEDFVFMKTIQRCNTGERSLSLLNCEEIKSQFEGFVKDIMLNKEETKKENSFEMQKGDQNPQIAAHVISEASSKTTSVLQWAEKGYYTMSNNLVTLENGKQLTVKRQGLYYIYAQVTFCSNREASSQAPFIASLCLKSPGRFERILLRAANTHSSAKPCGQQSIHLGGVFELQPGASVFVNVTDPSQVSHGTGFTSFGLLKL
# T2: CD40L (UniProt P29965 113-261, limits assumed)
# T2 construct: SPR analyte
# T2 sequence (looked up): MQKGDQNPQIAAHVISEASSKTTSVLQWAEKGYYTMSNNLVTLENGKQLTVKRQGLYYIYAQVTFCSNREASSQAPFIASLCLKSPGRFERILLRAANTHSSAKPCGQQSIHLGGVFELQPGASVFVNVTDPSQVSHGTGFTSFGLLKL
# B1: CD40L-23 (VHH)
# VHH: EVQLVESGGGLVQPGGSLRLSCAASGSIDRINAMGWFRQAPGKEREFVAVIYSSDGSTLYADSVKGRFTISADNSKNTAYLQMNSLKPEDTAVYYCAAEPYGSGSSLISEYDWGQGTLVTVSS
# B2: CD40L-105 (VHH)
# VHH: EVQLVESGGGLVQPGGSLRLSCAASGITFSSRTMGWFRQAPGKEREFVAAIRSSGGLFYADSVKGRFTISADNSKNTAYLQMNSLKPEDTAVYYCAAQDRRHGDYYTFDYHWGQGTLVTVSS
# B3: CD40L-115 (VHH)
# VHH: EVQLVESGGGLVQPGGSLRLSCAASGRTFSRYEMGWFRQAPGKEREFVAAVTEDGSTYYADSVKGRFTISADNSKNTAYLQMNSLKPEDTAVYYCAIAHGSSTYNWGQGTLVTVSS
# B4: CD40L-76 (VHH)
# VHH: EVQLVESGGGLVQPGGSLRLSCAASGRTFSTSAMGWFRQAPGKEREWVATIYSRSGGGTAYADSVKGRFTISADNSKNTAYLQMNSLKPEDTAVYYCAKEGYDWGDYVMDYWGQGTLVTVSS
# B5: CD40L-91 (VHH)
# VHH: EVQLVESGGGLVQPGGSLRLSCAASGGTFSSFPMGWFRQAPGKEREFVAAISWSEDNTYYADSVKGRFTISADNSKNTAYLQMNSLKPEDTAVYYCASRLAFCGRDCYLPTDWGQGTLVTVSS
# B6: CD40L-96 (VHH)
# VHH: B5 VHH with S31A, F47W, S52T, W53S, E55G, N57S, T58I, A97T, D112T
# B7: CD40L-111 (VHH)
# VHH: EVQLVESGGGLVQPGGSLRLSCAASGDTSEINDMGWFRQAPGKEREFVAAIYPSGRNAYYADSVKGRFTISADNSKNTAYLQMNSLKPEDTAVYYCAIPHGIAGRITWGQGTLVTVSS
# B8: CD40L-80 (VHH)
# VHH: EVQLVESGGGLVQPGGSLRLSCAASGFTFDDYDMGWFRQAPGKERELVASITSGGSTNYADSVKGRFTISADNSKNTAYLQMNSLKPEDTAVYYCAIPHGIDLYTFDWGQGTLVTVSS
# B9: CD40L-84 (VHH)
# VHH: EVQLVESGGGLVQPGGSLRLSCAASGRISNINIMGWFRQAPGKEREFVAGISQSGGSTAYADSVKGRFTISADNSKNTAYLQMNSLKPEDTAVYYCSRDEKLGPYYFDYWGQGTLVTVSS
# B10: CD40L-98 (VHH)
# VHH: EVQLVESGGGLVQPGGSLRLSCAASGITFKRYDMGWFRQAPGKEREVVAVIYTSDGSTYYADSVKGRFTISADNSKNTAYLQMNSLKPEDTAVYYCAADRDRYRDGMGPMTTTDFRWGQGTLVTVSS
# B11: CD40L-26 (VHH)
# VHH: EVQLVESGGGLVQPGGSLRLSCAASGLTFSRYEMGWFRQAPGKEREFVAAVTEDGSINYADSVKGRFTISADNSKNTAYLQMNSLKPEDTAVYYCAAEIGYYSGGTYFSSEAWGQGTLVTVSS
# B12: CD40L-60 (VHH)
# VHH: EVQLVESGGGLVQPGGSLRLSCAASGLNLSRLDMGWFRQAPGKEREFVAAVDNDDNTEYADSVKGRFTISADNSKNTAYLQMNSLKPEDTAVYYCASDHYDTDTKSDVYNWGQGTLVTVSS
# B13: CD40L-1 (VHH)
# VHH: EVQLVESGGGLVQPGGSLRLSCAASGRTFSSIYAMGWFRQAPGKEREFIAVIYWRDGSTLYADSVKGRFTISADNSKNTAYLQMNSLKPEDTAVYYCAAEPYGSGSSLISEYDWGQGTLVTVSS
# B14: CD40L-103 (VHH)
# VHH: B13 VHH with T28S, I32V, T59S
# B15: CD40L-125 (VHH)
# VHH: EVQLVESGGGLVQPGGSLRLSCAASGFTFDYYTMGWFRQAPGKEREFVAVIYSSDGSTLYADSVKGRFTISADNSKNTAYLQMNSLKPEDTAVYYCAIDEGMDYDGNFYDWGQGTLVTVSS
# B16: CD40L-114 (VHH)
# VHH: EVQLVESGGGLVQPGGSLRLSCAASGRTFSPYIMGWFRQAPGKEREFVAEIGWRDTTLYADSVKGRFTISADNSKNTAYLQMNSLKPEDTAVYYCAARRGGDYLPTDWGQGTLVTVSS
# B17: CD40L-102 (VHH)
# VHH: EVQLVESGGGLVQPGGSLRLSCAASGLTFSRYEMGWFRQAPGKEREFVAAVTEDGSIYADSVKGRFTISADNSKNTAYLQMNSLKPEDTAVYYCAAEIGYYSGGTYFSSEAWGQGTLVTVSS
# B18: CD40L-122 (VHH)
# VHH: EVQLVESGGGLVQPGGSLRLSCAASGLLFSSYDMGWFRQAPGKEREFVAAISWSTGSGDDTYYADSVKGRFTISADNSKNTAYLQMNSLKPEDTAVYYCASDHYDTDTKSDVYNWGQGTLVTVSS
# B19: CD40L-74 (VHH)
# VHH: EVQLVESGGGLVQPGGSLRLSCAASGRTFSSYYMGWFRQAPGKERELVAVIYTSDGSTYYADSVKGRFTISADNSKNTAYLQMNSLKPEDTAVYYCAAWLNGGNRWGQGTLVTVSS
# B20: CD40L-82 (VHH)
# VHH: B19 VHH with T28I, S31T, Y33F, L47G, V50T, S54G, D55N, S57Y, Y59L
# B21: CD40L-106 (VHH)
# VHH: EVQLVESGGGLVQPGGSLRLSCAASGLTFNDYAMGWFRQAPGKEREFVAGITNGGGRTSYADSVKGRFTISADNSKNTAYLQMNSLKPEDTAVYYCAADVGPTVKWGQGTLVTVSS
# B22: CD40L-45 (VHH)
# VHH: EVQLVESGGGLVQPGGSLRLSCAASGLNLSRLDMGWFRQAPGKEREFVAASSWTGANTYYADSVKGRFTISADNSKNTAYLQMNSLKPEDTAVYYCASDHYDTDIKSDVYNWGQGTLVTVSS
# B23: CD40L-73 (VHH)
# VHH: EVQLVESGGGLVQPGGSLRLSCAASGFTLGNYAMGWFRQAPGKEREFVASITSYGDTYYADSVKGRFTISADNSKNTAYLQMNSLKPEDTAVYYCARDGYTYGVDYWGQGTLVTVSS
# B24: CD40L-99 (VHH)
# VHH: EVQLVESGGGLVQPGGSLRLSCAASGFTPDDYAMGWFRQAPGKEREFVADIMPYGSTEYADSVKGRFTISADNSKNTAYLQMNSLKPEDTAVYYCARRDAGIDFYYMDVWGQGTLVTVSS
# Target: T1, CD40L over-expressed on Expi293 cells
# Experiment: flow cytometry, 100 nM antibody, CD40L-Expi293 vs parent Expi293 cells;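 also: ratio is the mean fluorescence intensity on CD40L-overexpressing Expi293 cells divided by the mean fluorescence intensity on parental Expi293 cells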
# Experimental: All incubations and washes were in buffer containing PBS+1% BSA. MFI Ratio is defined by the mean fluorescence intensity (MFI) of the cytokine over-expressing Expi293 cell over the Expi293 parent cell. […] EC50 was calculated in GraphPad Prism.
row,Binder,100 nM FACS (MFI Ratio)
1,B1,44.4 ratio
2,B2,4.5 ratio
3,B3,16.8 ratio
4,B4,9.6 ratio
5,B5,4.3 ratio
6,B6,3.7 ratio
7,B7,9.7 ratio
8,B8,4.6 ratio
9,B9,12.7 ratio
10,B10,6.4 ratio
11,B11,123 ratio
12,B12,50.4 ratio
13,B13,119 ratio
14,B14,3.6 ratio
15,B15,6.6 ratio
16,B16,7.3 ratio
17,B17,1.8 ratio
18,B18,14.2 ratio
19,B19,8.7 ratio
20,B20,18.6 ratio
21,B21,2.7 ratio
22,B22,93.9 ratio
23,B23,10.9 ratio
24,B24,3.1 ratio

# Target: T2, CD40L
# Experiment: SPR (Carterra LSA), antibody amine-coupled, 1:1 model
# Experimental: SPR experiments were performed on a Carterra LSA SPR biosensor equipped with a HC30M chip at 25° C. in HBS-TE. Antibodies were diluted to 10 μg/mL and amine-coupled to the sensor chip by EDC/NHS activation, followed by ethanolamine HCl quenching. Increasing concentrations of analyte were flowed over the sensor chip in HBS-TE with 0.5 mg/mL BSA with 5-minute association and 15-minute dissociation. Following each injection cycle the surface was regenerated with 2× 30-second injections of IgG elution buffer (Thermo). Data were analyzed in Carterra's Kinetics Tool software with 1:1 binding model.
Binder,Kd,koff,kon
B1,3 nM,0.000555 s⁻¹,185000 M⁻¹ s⁻¹
B11,0.491 nM,0.000211 s⁻¹,429000 M⁻¹ s⁻¹
B12,0.118 nM,0.000108 s⁻¹,915000 M⁻¹ s⁻¹
B13,0.986 nM,9.43e-05 s⁻¹,95600 M⁻¹ s⁻¹
B22,0.453 nM,0.000106 s⁻¹,234000 M⁻¹ s⁻¹
